Assay results from patent US9931373B2, “Method of reducing cancer cell proliferation by administering recombinant alpha-fetoprotein” (priority 2005, dated 2018).

Assays:
[1] = tested on: PHA-activated CBA thymocytes; assay: PHA-mediated thymocyte proliferation in vitro; format: cell-based, mouse CBA; settings: AFP alone, 24 hrs after 48 hrs PHA 1.5 μg/ml
[2] = tested on: embryonal fibroblasts of the lung and human retina; assay: Growth of primary culture of human embryonal fibroblasts, [H3]-thymidine; format: cell-based; settings: 24 hours, FIG. 7
Protocol: Proliferation of the cells was measured by a standard method of [H^3]-thymidine incorporation during the last four hours of culture and expressed in percent of the stimulation of growth in test cultures in respect of a control without AFP.
The primary culture of embryonal fibroblasts of the lung and human retina was obtained by treating with 0.25% trypsin solution corresponding tissues of 5-10 week embryos obtained after legal abortions. The cells were cultures in an RPMI-1640 medium in the presence of a 10% calf fetal serum (CFS). The cytostatic activity of AFP was measured as earlier described (Semenkova, L. 1997, Tumor Biol. 18, 261-274; Dudich E. I., et al., 1998, Tumor Biol. 198, 30-40). Cells in an amount of 4×10^4 in a 0.15 ml medium were intensively washed with a fresh to medium and placed in each cell of a 96-lune plate, then different doses of AFP were added and cultures 24 hours. Proliferation of the cells was measured by a standard method by the inclusion of [H^3]-thymidine during the last four hours of culturing.

[3] = tested on: human hepatoma cells HepG2; assay: Treatment of HepG2 cells in vitro with rhAFP; format: cell-based
Protocol: Results: Without treatment, tumors were determined at 5th-7th day after transplantation.

[4] = tested on: cells of B-cellular lymphoma Raji; assay: Nude line mice implanted with Raji lymphoma cells, tumor size; format: in vivo; settings: intraperitoneally daily for 20 days, 10 animals, listed as AFP
Source text: Anticancer preparations on the base of rAFP and of modified forms thereof may be used for inhibition of the growth of malignant neoplasms, such as primary or metastatic cancer of the liver, blood cancer (leucosis, myeloblastoma, lymphoma), breast cancer, prostate cancer. In order to determine the sensitivity of tumor cells to rAFP, it is possible to use different methods both in vitro and also in vivo. The method of determining activity in vitro is described in the preceding example 8. In order to determine the oncosuppressive action of preparations on the base of AFP in vivo, animal models may be used, for example Nude mice with subcutaneously or intraperitoneally implanted human lines of cancer cells, such as Raji, HepG2, LnCap, MCF-7 and others. For example, cells of B-cellular lymphoma Raji were administered subcutaneously in an amount of 1-5×10^6 per mouse. Administration of the rAFP and derivatives thereof was begun 7 days […] implantation of tumor cells intraperioneally or intravenously in an amount of 1-10 mg/kg. The physiological buffered solution (PBS) was used as a control. The size of the tumor was evaluated by daily measurements with the aid of a micrometer.

[5] = tested on: Human mesenchymal stromal/stem adipose tissue cells (ATSC); assay: Proliferation of adipose tissue stem cells (ATSC), [H3]-thymidine incorporation; format: cell-based; settings: for Cell proliferation (cpm × 103): 24 h
Source text: Human mesenchymal stromal/stem adipose tissue cells (ATSC) were isolated either from liposuction aspirates or from products of the fat deposit removed during the cosmetic surgery. The tissue was mechanically split to the fragments of several cubic millimeters. A suspension of tissue was mixed with type I Collagenase (200 U/ml) and Dispase (30 U/ml) (Sigma) in solution of 50% DMEM (Sigma, D-5523), 50% F12 (Sigma, N-6760), 1% BSA (Sigma), /100 U/ml penicillin and 100 U/ml ampicilline in 1:1 v/v and incubated for 1 hr at 37° C. to with mixing, following by filtering through 40 μm membrane (BD Falcon). The suspension was centrifuged 5 min at 200 g, upper layer was removed, and pellet consisting of separate non-adipose cells was treated by erythrocyte lysis buffer (154 mM NH4Cl, 10 mM KHCO3, 0.1 mM EDTA) during 5 min at 37° C., following by 5 min centrifugation at 300 g. Cell pellet was resuspended in DMEM/10% FBS. Resulting cells were cultured in the same medium in plastic flasks in CO2 incubator (37° C., 5% CO2). When reaching confluence, the cells were passaged by treatment the cell monolayer with 0.25% trypsin/0.02% EDTA. For the purpose of long-time storage, the cells were frozen in the culture medium supplemented by 15-20% FBS and 10% DMSO. Adipose cells were cultivated in DMEM/F12 medium with the addition 10% FBS 0.1% ECGF on 60 mm Petri dishes at 37° C. and 5% CO2. For the passages 0.25% trypsin/0.02% EDTA. solution was used. For the purpose of long-time storage, the cells were frozen in the culture medium supplemented by 15-20% FBS and 10% DMSO. Adipose tissue stem cells (ATSC) were cultivated in DMEM/F12 medium with the addition 10% FBS 0.1% ECGF on 60 mm Petri dishes at 37° C. and 5% CO2. For the passages 0.25% trypsin/0.02% EDTA solution was used. For the purpose of long-time storage, the cells were frozen in the culture medium supplemented by 15-20% FBS and 10% DMSO.
Human donor ATSC were isolated and cultivated as described above, the cells from 2-4 passage were taken in the study. ADSC (3×10^4) were plated in flat-bottom 96-well plates (Costar, USA) in complete medium with 10% FCS, after 18 h the medium was changed onto the medium with 5% human sera and cells were treated with increasing amounts of rhAFP (0-500 μg/ml) for 24 h. The direct effect of rhAFP on proliferation of ATSC was measured by [H^3]-thymidine incorporation. For the last 4 h 1 μCi of methyl-[H^3]-thymidine was added to the cultures.

[6] = tested on: resting mouse T-cells; assay: Control resting splenocytes / resting T-cells treated with rhAFP/CsA; format: cell-based, mouse (CBA)
Protocol: Control resting splenocytes CBA were treated for the same time with combination of rhAFP/CysA (FIG. 10C). Cytostatic effects were assessed by monitoring of cell proliferation by [^3H]-thymidine incorporation.

B1: rhAFP: recombinant human alpha-fetoprotein secreted by yeast Saccharomyces cerevisiae YBS723/pKX, glycosylated, mature human AFP sequence SEQ ID NO:2 (protein, listed as Homo sapiens)
chain: TLHRNEYGIASILDSYQCTAEISLADLATIFFAQFVQEATYKEVSKMVKDALTAIEKPTGDEQSSGCLENQLPAFLEELCHEKEILEKYGHSDCCSQSEEGRHNCFLAHKKPTPASIPLFQVPEPVTSCEAYEEDRETFMNKFIYEIARRHPFLYAPTILLWAARYDKIIPSCCKAENAVECFQTKAATVTKELRESSLLNQHACAVMKNFGTRTFQAITVTKLSQKFTKVNFTEIQKLVLDVAHVHEHCCRGDVLDCLQDGEKIMSYICSQQDTLSNKITECCKLTTLERGQCIIHAENDEKPEGLSPNLNRFLGDRDFNQFSSGEKNIFLASFVHEYSRRHPQLAVSVILRVAKGYQELLEKCFQTENPLECQDKGEEELQKYIQESQALAKRSCGLFQKLGEYYLQNAFLVAYTKKAPQLTSSELMAITRKMAATAATCCQLSEDKLLACGEGAADIIIGHLCIRHEMTPVNPGVGQCCTSSYANRRPCFSSLVVDETYVPPAFSDDKFIFHKDLCQAQGVALQTMKQEFLINLVKQKPQITEEQLEAVIADFSGLLEKCCQGQEQEVCFAEEGQKLISKTRAALGV
modifications: yeast glycosylation
B1 was tested. Which “proliferation of PHA-stimulated thymocytes in response to AFP” value [1] did it give?
Its value is “distinct dose-dependent growth suppression”.

And the “stimulating effect on cellular growth in respect to the control” value [2]?
The value was 50-90%.

What about the “effect on HepG2 cells in vitro” value [3] of the same molecule?
Its value is “dose-dependent growth suppression and apoptosis”.

What about the “Results (number of animals - tumor outcome)” value (“Results” for short) ([4]; 0.5 mg AFP per injection) of the same molecule?
Its value is 2-stabilization.

What about the “Results” value ([4]; 0.5 mg AFP per injection, animals where tumor did not develop) of the same molecule?
The value was 3-tumor did not develop.

What about the “Results” value ([4]; 0.5 mg AFP per injection, animals with 50% tumor inhibition) of the same molecule?
Its value is 5-50% inhibition.

And the “Results” value ([4]; 1 mg AFP per injection)?
The value was 2-stabilizaton.

And the “Results” value ([4]; 1 mg AFP per injection, animals where tumor did not develop)?
Its value is 3-tumor did not develop.

And the “Results” value ([4]; 1 mg AFP per injection, animals with 50% tumor inhibition)?
Its value is 5-50% inhibition.

What about the “Results” value ([4]; 2 mg AFP per injection) of the same molecule?
Its value is 2-stabilization.

What about the “Results” value ([4]; 2 mg AFP per injection, animals where tumor did not develop) of the same molecule?
Its value is 3-tumor did not develop.

What about the “Results” value ([4]; 2 mg AFP per injection, animals with 50% tumor inhibition) of the same molecule?
Its value is 5-50% inhibition.

And the “Maximum effect on proliferation of ATSC” value ([5]; 300 μg/ml of rhAFP, compared to untreated control)?
The value was 50%.

And the “Cell proliferation, change versus control” value ([5]; AFP 0.100 mg/ml, 2 passage)?
Its value is “(+16%)”.

And the “Cell proliferation (cpm × 103)” value ([5]; AFP 0.100 mg/ml, 2 passage, control 17.8 ± 6.4)?
The value was 20.7 ± 0.7 cpm × 103.

What about the “Cell proliferation, change versus control” value ([5]; AFP 0.100 mg/ml, 3 passage) of the same molecule?
The value was “(+7%)”.

What about the “Cell proliferation (cpm × 103)” value ([5]; AFP 0.100 mg/ml, 3 passage, control 16.5 ± 1.5) of the same molecule?
The value was 17.7 ± 5.3 cpm × 103.

And the “Cell proliferation, change versus control” value ([5]; AFP 0.100 mg/ml, 4 passage)?
Its value is “(+20%)”.

What about the “Cell proliferation (cpm × 103)” value ([5]; AFP 0.100 mg/ml, 4 passage, control 0.83 ± 0.1) of the same molecule?
Its value is 1.0 ± 0.08 cpm × 103.

What about the “Cell proliferation, change versus control” value ([5]; AFP 0.300 mg/ml, 2 passage) of the same molecule?
Its value is “(+44%)”.

What about the “Cell proliferation (cpm × 103)” value ([5]; AFP 0.300 mg/ml, 2 passage, control 17.8 ± 6.4) of the same molecule?
Its value is 25.8 ± 4.1 cpm × 103.

What about the “Cell proliferation, change versus control” value ([5]; AFP 0.300 mg/ml, 3 passage) of the same molecule?
Its value is “(+35%)”.

And the “Cell proliferation (cpm × 103)” value ([5]; AFP 0.300 mg/ml, 3 passage, control 16.5 ± 1.5)?
Its value is 22.4 ± 1.4 cpm × 103.

And the “Cell proliferation, change versus control” value ([5]; AFP 0.300 mg/ml, 4 passage)?
Its value is “(+50%)”.

What about the “Cell proliferation (cpm × 103)” value ([5]; AFP 0.300 mg/ml, 4 passage, control 0.83 ± 0.1) of the same molecule?
Its value is 1.2 ± 0.24 cpm × 103.

And the “suppression of resting immune cells” value ([6]; AFP as modulator of CsA-mediated signals)?
Its value is “does not suppress resting immune cells”.

What about the “effect of rhAFP on CsA treatment of resting mouse T-cells” value ([6]; FIG. 10C) of the same molecule?
The value was “cancellation of the cytotoxic effects of CsA treatment”.
